Results from the Immune Epitope Database (IEDB).
Blank lines part the entries; values can stand above or below the sequence they belong to.

What was measured:
[1] = target: HLA-A*02:01; assay: IEDB peptide-MHC binding, purified MHC/competitive/radioactivity; filed as Kd, often an IC50 or EC50 that approximates it; ≥ and ≤ were set here for values at or beyond the usual limits of such assays
[2] = target: HLA-A*02:03; assay: as above; conditions: source organism: Dengue virus 4 Philippines/H241/1956
[3] = target: HLA-A*02:06; assay: as above; conditions: source organism: Dengue virus 4 Philippines/H241/1956
[4] = target: HLA-A*02:17; assay: as above
[5] = target: HLA-A*68:02; assay: as above; conditions: source organism: Dengue virus 4 Philippines/H241/1956
[6] = target: HLA-B*18:01; assay: as above
[7] = target: HLA-B*40:01; assay: as above
[8] = target: HLA-B*40:02; assay: as above
[9] = target: HLA-B*44:02; assay: as above
[10] = target: HLA-B*44:03; assay: as above
[11] = target: HLA-B*45:01; assay: as above
[12] = target: HLA-A*03:01; assay: IEDB peptide-MHC binding, purified MHC/competitive/fluorescence; ≥ and ≤ were set here for values at or beyond the usual limits of such assays
[13] = target: HLA-A*11:01; assay: as above
[14] = target: HLA-B*07:02; assay: IEDB peptide-MHC binding, purified MHC/competitive/fluorescence; filed as Kd, often an IC50 or EC50 that approximates it; ≥ and ≤ were set here for values at or beyond the usual limits of such assays
[15] = target: HLA-A*30:01; assay: IEDB peptide-MHC binding, purified MHC/competitive/radioactivity; filed as Kd, often an IC50 or EC50 that approximates it; ≥ and ≤ were set here for values at or beyond the usual limits of such assays; conditions: source organism: Vaccinia virus WR
[16] = target: HLA-A*32:01; assay: as above; conditions: source organism: Vaccinia virus WR
[17] = target: HLA-B*08:01; assay: as above; conditions: source organism: Vaccinia virus WR
[18] = target: HLA-B*15:01; assay: as above; conditions: source organism: Vaccinia virus WR
[19] = target: HLA-B*15:03; assay: as above; conditions: source organism: Vaccinia virus WR
[20] = target: HLA-B*44:02; assay: IEDB peptide-MHC binding, purified MHC/direct/fluorescence; filed as Kd, often an IC50 or EC50 that approximates it; ≥ and ≤ were set here for values at or beyond the usual limits of such assays; conditions: source organism: Dengue virus 1 Singapore/S275/1990
[21] = target: HLA-B*15:42; assay: IEDB peptide-MHC binding, purified MHC/competitive/fluorescence; filed as Kd, often an IC50 or EC50 that approximates it; ≥ and ≤ were set here for values at or beyond the usual limits of such assays; conditions: source organism: dengue virus type 1
[22] = target: HLA-B*45:06; assay: as above; conditions: source organism: dengue virus type 1
[23] = target: HLA-B*83:01; assay: as above; conditions: source organism: dengue virus type 1
[24] = target: HLA-A*24:02; assay: as above
[25] = target: HLA-B*35:01; assay: as above; conditions: source organism: Salmonella enterica subsp. enterica serovar Typhi
[26] = target: HLA-B*39:01; assay: as above; conditions: source organism: Salmonella enterica subsp. enterica serovar Typhi
[27] = target: HLA-A*11:01; assay: as above; conditions: source organism: Homo sapiens
[28] = source organism: Dengue virus 4 Philippines/H241/1956
[29] = source organism: Mammarenavirus juninense
[30] = source organism: Zaire ebolavirus
[31] = source organism: Vaccinia virus
[32] = source organism: SARS coronavirus Tor2
[33] = source organism: Lassa virus Josiah
[34] = source organism: Dengue virus 1 Singapore/S275/1990
[35] = source organism: Mammarenavirus guanaritoense
[36] = source organism: Dengue virus 3 China/80-2/1980

Sequence: MVIGMAMTTV
Kd [1, 28]: 0.00936 µM
Kd [2]: 0.00014 µM
Kd [3]: 0.0053 µM
Kd [4, 28]: 0.132 µM
Kd [5]: 0.00327 µM

Sequence: PDSCLNGKL
Kd [6, 29]: ≥ 20.1 µM
Kd [7, 29]: ≥ 67.9 µM
Kd [8, 29]: ≥ 77.2 µM
Kd [9, 29]: ≥ 77.9 µM
Kd [10, 29]: ≥ 78.1 µM
Kd [11, 29]: ≥ 25.6 µM

Sequence: QLQQYAESR
IC50 [12, 30]: ≥ 240 µM
IC50 [13, 30]: 18.7 µM

Sequence: RARIKTRLFTI
Kd ([14]; source organism: Influenza A virus (A/X-31(H3N2))): 0.733 µM

Sequence: RMKWMMAM
Kd ([14]; source organism: Influenza A virus H3N2): 3.25 µM

Sequence: RNKLSYRNK
IC50 [12, 31]: 45.1 µM
IC50 [13, 31]: ≥ 90.4 µM
Kd [15]: 0.0639 µM
Kd [16]: ≥ 44 µM
Kd [17]: ≥ 61.5 µM
Kd [18]: ≥ 29.5 µM
Kd [19]: 16.4 µM

Sequence: SEAREHLKNG
Kd [6, 32]: ≥ 70.5 µM
Kd [7, 32]: ≥ 39.3 µM
Kd [8, 32]: 6.59 µM
Kd [9, 32]: ≥ 36.2 µM
Kd [10, 32]: ≥ 28.1 µM
Kd [11, 32]: 8.32 µM

Sequence: SEGKDTPGGY
Kd [6, 33]: ≥ 59.6 µM
Kd [7, 33]: ≥ 25.4 µM
Kd [8, 33]: ≥ 70.8 µM
Kd [9, 33]: 1.45 µM
Kd [10, 33]: 1.75 µM
Kd [11, 33]: ≥ 70 µM

Sequence: SEMGANFRA
Kd [20]: ≥ 37.7 µM
Kd [21]: ≥ 5 µM
Kd [22]: ≥ 5 µM
Kd [23]: ≥ 5 µM
Kd ([10]; source organism: Dengue virus 1 Brazil/97-11/1997): 0.0489 µM

Sequence: SFFYRYGF
Kd ([24]; source organism: Influenza A virus (A/Fort Monmouth/1/1947-mouse adapted(H1N1))): 0.0357 µM

Sequence: SKSMRDQRK
IC50 ([12]; source organism: Variola virus): ≥ 246 µM
IC50 ([13]; source organism: Variola virus): 21.1 µM

Sequence: TEIEPKLDG
Kd [6, 32]: ≥ 77.5 µM
Kd [7, 32]: ≥ 76.2 µM
Kd [8, 32]: ≥ 74.8 µM
Kd [9, 32]: 17.9 µM
Kd [10, 32]: 13.4 µM
Kd [11, 32]: ≥ 28.6 µM

Sequence: TLAVFLLLI
Kd [1, 34]: 2.59 µM
Kd [4, 34]: 1.84 µM

Sequence: TMTLWYMWQV
Kd [1, 28]: 0.0288 µM
Kd [3]: 0.0745 µM
Kd [4, 28]: 0.433 µM

Sequence: WPDVFSVSV
Kd ([14]; source organism: Salmonella enterica subsp. enterica serovar Typhi): 0.0657 µM
Kd [25]: 0.0013 µM
Kd [26]: 0.0038 µM

Sequence: YEERLNEQLL
Kd [6, 35]: 5.99 µM
Kd [7, 35]: 2.48 µM
Kd [8, 35]: 1.64 µM
Kd [9, 35]: ≥ 10 µM
Kd [10, 35]: 14.6 µM
Kd [11, 35]: ≥ 70 µM

Sequence: YILWENNIKL
Kd [1, 36]: 0.00585 µM
Kd [4, 36]: 0.0101 µM

Kd [27]: ≥ 20 µM
Sequence: YLDDRNTFR

Sequence: YYLLFYPTI
Kd ([24]; source organism: Bacillus thuringiensis str. Al Hakam): ≤ 0.0001 µM
